Experimental data published in patent publication US20060292657A1, “Phex substrates and methods using same” (priority 2003, published 2006).

What was measured:
[1] = target: T1, secPHEX (Homo sapiens, UniProt P78562); assay: secPHEX activity with NEP-specific substrate and inhibitor; type: biochemical; conditions: thiorphan 10^−6 M, 10 μM substrate, 30 minutes
T1 construct: pure soluble form of PHEX (secPHEX); made in house
T1 sequence (P78562 46-749 limits assumed): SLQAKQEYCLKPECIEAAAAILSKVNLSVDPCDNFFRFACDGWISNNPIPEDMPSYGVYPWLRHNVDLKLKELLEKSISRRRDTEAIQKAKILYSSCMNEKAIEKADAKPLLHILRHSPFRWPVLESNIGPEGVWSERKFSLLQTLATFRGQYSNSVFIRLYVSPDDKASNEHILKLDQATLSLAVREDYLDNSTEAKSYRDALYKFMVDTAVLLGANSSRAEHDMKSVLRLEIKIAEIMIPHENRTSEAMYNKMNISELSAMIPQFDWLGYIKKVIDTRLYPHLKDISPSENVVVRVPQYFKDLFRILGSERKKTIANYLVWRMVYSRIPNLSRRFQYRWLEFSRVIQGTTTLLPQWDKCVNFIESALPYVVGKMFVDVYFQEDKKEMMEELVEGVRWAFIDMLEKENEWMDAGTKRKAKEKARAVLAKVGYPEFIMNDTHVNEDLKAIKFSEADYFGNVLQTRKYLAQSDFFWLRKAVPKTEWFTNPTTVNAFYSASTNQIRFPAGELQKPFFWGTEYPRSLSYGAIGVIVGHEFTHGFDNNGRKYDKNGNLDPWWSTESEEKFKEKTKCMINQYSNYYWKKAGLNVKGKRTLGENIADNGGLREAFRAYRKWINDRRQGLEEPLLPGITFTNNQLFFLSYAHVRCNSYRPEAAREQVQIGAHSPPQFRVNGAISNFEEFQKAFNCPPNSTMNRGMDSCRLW
Procedure: (§1) FIG. 4 graphically illustrates the activity of PHEX in the presence of NEP-specific substrate and inhibitor. NEP, secPHEX and membrane-bound PHEX (mPHEX) activities were measured after 30 minutes of incubation in presence of either 10 μM Abz-DRRL-EDDnp (SEQ ID NO:8) (A) or 10 μM Abz-GFSDYK(Dnp)-OH (SEQ ID NO:3) (B). Fluorescence detection (AFU) at γem=420 nm and γex=320 nm was determined as described under the heading “Experimental Procedures” below. When present, thiorphan, a NEP-specific inhibitor, was at a concentration of 10^−6 M. Data are a compilation of three different experiments;
(§2) The activities of membrane-bound PHEX and secPHEX were also compared with the NEP-specific substrate Abz-DRRL-EDDnp (SEQ ID NO:8) (46).

[2] = system: NEP; assay: NEP activity with NEP-specific substrate and inhibitor; type: biochemical; conditions: thiorphan 10^−6 M, 10 μM Abz-DRRL-EDDnp, 30 minutes
Procedure: as §1
The human recombinant secPHEX was obtained following the procedure previously described (17, WO 00/50580). Purified secPHEX concentration was determined using the Bradford method (DC protein assay kit; Bio-Rad, Mississauga, ON, Canada). Membrane-bound recombinant human PHEX was expressed in LLC-PK1 cells (17, (WO 00/50580)) and membranes were prepared essentially as described by Guo et al. (34). Briefly, transfected cells resuspended in lysis buffer (150 mM NaCl, 20 mM Tris.HCl, pH 7.6) were disrupted by sonication. […] Insoluble material was pelleted by centrifugation at 10,000 g for 15 min and protein concentrations of the supernatant determined using the Bradford method described above. PHEX amounts were evaluated by immunoblotting as described previously (17). […]

[3] = target: T2, membrane-bound PHEX (mPHEX) (Homo sapiens, UniProt P78562); assay: Membrane-bound PHEX activity with NEP-specific substrate and inhibitor; type: biochemical; conditions: thiorphan 10^−6 M, 10 μM substrate, 30 minutes
T2 construct: expressed in transfected cells; host or cells: LLC-PK1 (porcine kidney cells)
Procedure: as §1, §2

[4] = target: T3, PHEX (Homo sapiens, UniProt P78562); conditions: applicants previous observation (17); cited from earlier work
T3 sequence (P78562 1-749): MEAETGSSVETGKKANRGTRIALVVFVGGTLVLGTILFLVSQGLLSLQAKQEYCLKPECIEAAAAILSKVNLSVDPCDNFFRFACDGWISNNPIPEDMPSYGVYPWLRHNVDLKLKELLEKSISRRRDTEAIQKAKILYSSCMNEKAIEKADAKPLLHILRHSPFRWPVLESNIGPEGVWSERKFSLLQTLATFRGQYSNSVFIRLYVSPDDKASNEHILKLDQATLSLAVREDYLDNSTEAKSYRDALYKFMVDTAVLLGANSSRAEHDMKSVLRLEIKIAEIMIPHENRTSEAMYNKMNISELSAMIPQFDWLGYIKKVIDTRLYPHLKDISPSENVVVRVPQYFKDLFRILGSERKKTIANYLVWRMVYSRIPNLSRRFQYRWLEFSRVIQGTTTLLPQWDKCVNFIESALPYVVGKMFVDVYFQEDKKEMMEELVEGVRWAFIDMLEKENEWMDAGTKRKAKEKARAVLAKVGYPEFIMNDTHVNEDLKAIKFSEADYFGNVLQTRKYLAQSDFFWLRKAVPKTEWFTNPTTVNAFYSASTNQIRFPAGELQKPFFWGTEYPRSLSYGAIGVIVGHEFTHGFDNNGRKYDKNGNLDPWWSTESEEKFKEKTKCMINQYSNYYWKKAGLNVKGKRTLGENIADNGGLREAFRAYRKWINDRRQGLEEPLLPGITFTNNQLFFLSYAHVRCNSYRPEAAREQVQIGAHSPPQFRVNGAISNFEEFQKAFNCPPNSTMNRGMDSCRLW

[5] = substrate: Nc1ccccc1C(=O)NCC(=O)N[C@@H](Cc1ccccc1)C(=O)N[C@@H](CO)C(=O)N[C@@H](CC(=O)O)C(=O)N[C@@H](Cc1ccc(O)cc1)C(=O)N[C@@H](CCCCNc1ccc([N+](=O)[O-])cc1[N+](=O)[O-])C(=O)O; assay: Hydrolysis by secPHEX added to membranes of vector-transfected LLC-PK1 cells; type: biochemical, human; conditions: other: secPHEX added to membranes from cells transfected with vector alone, 0.01 M Bis-Tris pH 5.5, 150 mM NaCl, 37° C.
Procedure: (§3) FIG. 3 graphically illustrates hydrolysis of Abz-GFSDYK(Dnp)-OH (SEQ ID NO:3) by secPHEX and membrane-bound PHEX. Abz-GFSDYK(Dnp)-OH (SEQ ID NO:3) at a concentration of 10 μM was incubated at 37° C., in 0.01 M Bis-Tris buffer, pH 5.5 with 150 mM NaCl, containing 2,1 μg total proteins from membranes extracted from LLC-PK1 transfected with vector alone (notes as “A” on the figure), or 2,1 μg total proteins from membranes extracted from LLC-PK1 transfected with the membrane-bound form of human PHEX (noted as “□” on the figure); or 2,1 μg total proteins from membranes extracted from LLC-PK1 transfected with vector alone to which 500 ng purified secPHEX were added (noted as “o” on the figure). Fluorescence was monitored every 4 min for a period of 28 min. Amounts of secPHEX or membrane-bound PHEX (mPHEX) in the enzymatic reactions were evaluated by immunoblotting (Inset). Mock: cells transfected with vector alone;
(§4) The human recombinant secPHEX was obtained following the procedure previously described (17, WO 00/50580). Purified secPHEX concentration was determined using the Bradford method (DC protein assay kit; Bio-Rad, Mississauga, ON, Canada). […] Insoluble material was pelleted by centrifugation at 10,000 g for 15 min and protein concentrations of the supernatant determined using the Bradford method described above. PHEX amounts were evaluated by immunoblotting as described previously (17). […]

[6] = target: T4, Abz-GFSDYK(Dnp)-OH
T4 chain: GFSDYK

[7] = target: T5, Abz-DRRL-EDDnp
T5 chain: DRRL

[8] = substrate: Nc1ccccc1C(=O)NCC(=O)N[C@@H](Cc1ccccc1)C(=O)N[C@@H](CO)C(=O)N[C@@H](CC(=O)O)C(=O)N[C@@H](Cc1ccc(O)cc1)C(=O)N[C@@H](CCCCNc1ccc([N+](=O)[O-])cc1[N+](=O)[O-])C(=O)O; assay: Hydrolysis by membrane-bound PHEX from transfected LLC-PK1 cells; type: biochemical, human; conditions: other: membrane-bound PHEX, 0.01 M Bis-Tris pH 5.5, 150 mM NaCl, 37° C.
Procedure: as §3, §4

Molecule: O=C(O)CNC(=O)C(CS)Cc1ccccc1 (stereo not drawn) [thiorphan]
- inhibition of cleavage of Abz-GFSDYK(Dnp)-OH [1]: did not prevent cleavage
- inhibition of NEP activity [2]: completely inhibited
- inhibition of cleavage of Abz-GFSDYK(Dnp)-OH [3]: did not prevent cleavage

Molecule: substance P
- cleavage by PHEX [4]: could not cleave

B1: secPHEX (Homo sapiens) (protein)
chain: SLQAKQEYCLKPECIEAAAAILSKVNLSVDPCDNFFRFACDGWISNNPIPEDMPSYGVYPWLRHNVDLKLKELLEKSISRRRDTEAIQKAKILYSSCMNEKAIEKADAKPLLHILRHSPFRWPVLESNIGPEGVWSERKFSLLQTLATFRGQYSNSVFIRLYVSPDDKASNEHILKLDQATLSLAVREDYLDNSTEAKSYRDALYKFMVDTAVLLGANSSRAEHDMKSVLRLEIKIAEIMIPHENRTSEAMYNKMNISELSAMIPQFDWLGYIKKVIDTRLYPHLKDISPSENVVVRVPQYFKDLFRILGSERKKTIANYLVWRMVYSRIPNLSRRFQYRWLEFSRVIQGTTTLLPQWDKCVNFIESALPYVVGKMFVDVYFQEDKKEMMEELVEGVRWAFIDMLEKENEWMDAGTKRKAKEKARAVLAKVGYPEFIMNDTHVNEDLKAIKFSEADYFGNVLQTRKYLAQSDFFWLRKAVPKTEWFTNPTTVNAFYSASTNQIRFPAGELQKPFFWGTEYPRSLSYGAIGVIVGHEFTHGFDNNGRKYDKNGNLDPWWSTESEEKFKEKTKCMINQYSNYYWKKAGLNVKGKRTLGENIADNGGLREAFRAYRKWINDRRQGLEEPLLPGITFTNNQLFFLSYAHVRCNSYRPEAAREQVQIGAHSPPQFRVNGAISNFEEFQKAFNCPPNSTMNRGMDSCRLW
notes: pure soluble form of PHEX (secPHEX); made in house
- Km [5]: 5 µM

B2: membrane-bound form of human PHEX (Homo sapiens) (protein)
chain: MEAETGSSVETGKKANRGTRIALVVFVGGTLVLGTILFLVSQGLLSLQAKQEYCLKPECIEAAAAILSKVNLSVDPCDNFFRFACDGWISNNPIPEDMPSYGVYPWLRHNVDLKLKELLEKSISRRRDTEAIQKAKILYSSCMNEKAIEKADAKPLLHILRHSPFRWPVLESNIGPEGVWSERKFSLLQTLATFRGQYSNSVFIRLYVSPDDKASNEHILKLDQATLSLAVREDYLDNSTEAKSYRDALYKFMVDTAVLLGANSSRAEHDMKSVLRLEIKIAEIMIPHENRTSEAMYNKMNISELSAMIPQFDWLGYIKKVIDTRLYPHLKDISPSENVVVRVPQYFKDLFRILGSERKKTIANYLVWRMVYSRIPNLSRRFQYRWLEFSRVIQGTTTLLPQWDKCVNFIESALPYVVGKMFVDVYFQEDKKEMMEELVEGVRWAFIDMLEKENEWMDAGTKRKAKEKARAVLAKVGYPEFIMNDTHVNEDLKAIKFSEADYFGNVLQTRKYLAQSDFFWLRKAVPKTEWFTNPTTVNAFYSASTNQIRFPAGELQKPFFWGTEYPRSLSYGAIGVIVGHEFTHGFDNNGRKYDKNGNLDPWWSTESEEKFKEKTKCMINQYSNYYWKKAGLNVKGKRTLGENIADNGGLREAFRAYRKWINDRRQGLEEPLLPGITFTNNQLFFLSYAHVRCNSYRPEAAREQVQIGAHSPPQFRVNGAISNFEEFQKAFNCPPNSTMNRGMDSCRLW
notes: expressed in transfected cells; host or cells: LLC-PK1 (porcine kidney cells)
- Km [6]: 5×10^-6 M and 10×10^-6 M, for secPHEX and membrane-bound PHEX, respectively
- substrate hydrolysis (fluorescence) [6]: degradation of the substrate was observed
- substrate hydrolysis (fluorescence) [7]: Neither enzyme hydrolyzed this substrate
- Km [8]: 10 µM
